Results taken from patent US20140235820A1, “METHODS AND COMPOSITIONS FOR MODULATING THE Wnt PATHWAY” (Genentech, Inc., priority 2010, published 2014).
“Also recorded” adds a separate entry of the source.

Experiments:
LRP6 E3E4 = molecular target: T1, LRP6 E3E4 (Homo sapiens, UniProt O75581); experiment: Biolayer interferometry binding to LRP6 E3E4
T1 construct: construct E3E4 amino acids E631-Q1253 of LPR6; made in house; host or cells: Tni insect cells (baculovirus, secreted)
T1 sequence (O75581 631-1253): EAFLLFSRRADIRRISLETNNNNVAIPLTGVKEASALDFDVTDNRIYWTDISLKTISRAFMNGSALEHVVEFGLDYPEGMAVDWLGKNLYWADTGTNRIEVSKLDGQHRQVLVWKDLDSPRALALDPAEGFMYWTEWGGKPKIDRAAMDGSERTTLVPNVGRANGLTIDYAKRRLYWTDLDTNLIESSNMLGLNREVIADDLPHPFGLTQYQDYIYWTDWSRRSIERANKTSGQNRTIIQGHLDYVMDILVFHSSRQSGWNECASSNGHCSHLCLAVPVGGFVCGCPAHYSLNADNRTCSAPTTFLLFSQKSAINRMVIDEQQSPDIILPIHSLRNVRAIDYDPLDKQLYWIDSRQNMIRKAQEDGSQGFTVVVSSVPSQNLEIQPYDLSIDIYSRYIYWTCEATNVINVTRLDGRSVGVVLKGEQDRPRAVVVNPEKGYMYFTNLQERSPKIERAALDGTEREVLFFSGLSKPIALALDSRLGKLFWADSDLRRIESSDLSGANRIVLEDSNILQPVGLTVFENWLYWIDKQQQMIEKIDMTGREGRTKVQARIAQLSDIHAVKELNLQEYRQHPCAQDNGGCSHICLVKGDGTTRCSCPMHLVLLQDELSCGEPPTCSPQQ
Protocol: (§1) Binding kinetics were measured by biolayer interferometry using an Octet Red instrument (ForteBio) as previously described (11). Streptavidin (SA) biosensors were loaded with biotinylated hLRP6 in 50 mMTris, pH 8, 300 mM NaCl, 5% (v/v) glycerol, and 0.05% (w/v) Triton X-100. The loaded biosensors were washed in the same buffer before carrying out association and dissociation measurements for the indicated times. The Kd of each interaction was determined using steady state-analysis through the Octet Red software v6.3. Each reported value represents an average of three or more experiments at different concentrations, with a fitted experimental curve for which the square of the correlation coefficient (R^2) is above 0.96.
(§2) The interaction of the different Dkks and sclerostin with various domains of LRP6 was measured using a biolayer interferometry assay (11). Purified receptors contained individual β-propeller-EGF-like units (E1, E2, or E4), two β-propellers (E1E2 or E3E4), or four β-propellers (E1E4))—as follows:
(§3) Human LRP6: construct E1E4-amino acids A20-Q1253 of LPR6; construct E1E2-amino acids A20-E631 of LPR6; construct E3E4 amino acids E631-Q1253 of LPR6; construct E1-amino acids A20-D325 of LPR6; construct E2-amino acids […]-E631 of LPR6; construct E4-T933-Q1253. The individual LRP6 β-propeller E3 could not be expressed.

[1] = molecular target: T2, human LRP6 construct E1E2 (amino acids A20-E631) (human, UniProt O75581 20-631, biotinylated for biolayer interferometry); experiment: BLI (FIG. 9B)
T2 construct: range 20-631; also called LRP6 E1E2
T2 sequence (looked up): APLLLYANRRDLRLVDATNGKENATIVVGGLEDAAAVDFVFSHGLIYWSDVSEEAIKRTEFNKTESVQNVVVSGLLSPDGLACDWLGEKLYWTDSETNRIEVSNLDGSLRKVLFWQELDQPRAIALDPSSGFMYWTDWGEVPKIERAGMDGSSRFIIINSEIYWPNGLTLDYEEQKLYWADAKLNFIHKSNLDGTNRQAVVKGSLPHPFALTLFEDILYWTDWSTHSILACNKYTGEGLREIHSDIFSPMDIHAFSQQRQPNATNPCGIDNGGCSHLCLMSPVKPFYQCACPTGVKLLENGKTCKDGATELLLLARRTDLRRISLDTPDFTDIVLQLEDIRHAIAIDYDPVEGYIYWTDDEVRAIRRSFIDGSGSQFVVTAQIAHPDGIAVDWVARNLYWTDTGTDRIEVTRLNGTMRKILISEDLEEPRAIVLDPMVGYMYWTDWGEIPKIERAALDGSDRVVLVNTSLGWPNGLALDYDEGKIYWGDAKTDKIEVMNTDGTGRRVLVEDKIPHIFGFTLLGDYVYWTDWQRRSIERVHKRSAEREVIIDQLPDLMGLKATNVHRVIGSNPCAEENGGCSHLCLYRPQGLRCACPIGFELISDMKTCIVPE
Protocol: as §1, with “(R²)” for “(R^2)”

[2] = molecular target: T3, human LRP6 construct E1E4 (amino acids A20-Q1253) (human, UniProt O75581 20-1253, biotinylated for biolayer interferometry); experiment: BLI (FIG. 9B)
T3 construct: range 20-1253; Expressed in Tni insect cells; tags not specified for this construct; also called LRP6 E1E4
T3 sequence (looked up): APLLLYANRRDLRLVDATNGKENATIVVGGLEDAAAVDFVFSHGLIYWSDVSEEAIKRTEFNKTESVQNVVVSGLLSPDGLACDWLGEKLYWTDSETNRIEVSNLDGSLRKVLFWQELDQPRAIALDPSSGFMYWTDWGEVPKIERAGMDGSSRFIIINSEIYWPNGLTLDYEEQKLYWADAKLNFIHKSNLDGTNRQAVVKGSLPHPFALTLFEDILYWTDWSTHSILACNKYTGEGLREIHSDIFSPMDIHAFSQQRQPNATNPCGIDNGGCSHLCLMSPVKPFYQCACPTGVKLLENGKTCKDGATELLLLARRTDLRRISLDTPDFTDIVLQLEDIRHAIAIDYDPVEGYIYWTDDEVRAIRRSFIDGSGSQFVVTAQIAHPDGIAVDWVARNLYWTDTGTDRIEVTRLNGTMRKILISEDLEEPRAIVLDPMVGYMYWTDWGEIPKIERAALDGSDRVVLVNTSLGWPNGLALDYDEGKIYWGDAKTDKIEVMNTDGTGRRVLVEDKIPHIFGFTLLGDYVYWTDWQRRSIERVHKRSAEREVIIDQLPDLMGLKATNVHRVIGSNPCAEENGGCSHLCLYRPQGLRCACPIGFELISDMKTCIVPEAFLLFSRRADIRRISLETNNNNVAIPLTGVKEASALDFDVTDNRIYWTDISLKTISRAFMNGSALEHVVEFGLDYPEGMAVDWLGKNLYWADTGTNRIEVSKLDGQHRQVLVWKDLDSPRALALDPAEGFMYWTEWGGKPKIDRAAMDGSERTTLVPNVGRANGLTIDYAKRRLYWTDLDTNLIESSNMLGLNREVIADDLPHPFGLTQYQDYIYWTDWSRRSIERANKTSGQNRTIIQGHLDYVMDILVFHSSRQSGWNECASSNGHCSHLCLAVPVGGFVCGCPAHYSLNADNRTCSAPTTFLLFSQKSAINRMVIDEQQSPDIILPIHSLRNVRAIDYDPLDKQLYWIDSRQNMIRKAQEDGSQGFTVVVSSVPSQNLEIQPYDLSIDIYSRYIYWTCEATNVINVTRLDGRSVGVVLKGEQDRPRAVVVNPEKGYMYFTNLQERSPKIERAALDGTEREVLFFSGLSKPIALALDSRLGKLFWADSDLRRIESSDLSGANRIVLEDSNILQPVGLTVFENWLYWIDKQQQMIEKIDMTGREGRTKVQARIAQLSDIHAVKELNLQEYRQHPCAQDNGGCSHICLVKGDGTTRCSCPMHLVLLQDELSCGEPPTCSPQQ
Protocol: as §1, with “(R²)” for “(R^2)”

LRP6 E1E4 = molecular target: T4, LRP6 E1E4 (Homo sapiens, UniProt O75581); experiment: Biolayer interferometry binding to LRP6 E1E4
T4 construct: construct E1E4-amino acids A20-Q1253 of LPR6; made in house; host or cells: Tni insect cells (baculovirus, secreted)
T4 sequence (O75581 20-1253): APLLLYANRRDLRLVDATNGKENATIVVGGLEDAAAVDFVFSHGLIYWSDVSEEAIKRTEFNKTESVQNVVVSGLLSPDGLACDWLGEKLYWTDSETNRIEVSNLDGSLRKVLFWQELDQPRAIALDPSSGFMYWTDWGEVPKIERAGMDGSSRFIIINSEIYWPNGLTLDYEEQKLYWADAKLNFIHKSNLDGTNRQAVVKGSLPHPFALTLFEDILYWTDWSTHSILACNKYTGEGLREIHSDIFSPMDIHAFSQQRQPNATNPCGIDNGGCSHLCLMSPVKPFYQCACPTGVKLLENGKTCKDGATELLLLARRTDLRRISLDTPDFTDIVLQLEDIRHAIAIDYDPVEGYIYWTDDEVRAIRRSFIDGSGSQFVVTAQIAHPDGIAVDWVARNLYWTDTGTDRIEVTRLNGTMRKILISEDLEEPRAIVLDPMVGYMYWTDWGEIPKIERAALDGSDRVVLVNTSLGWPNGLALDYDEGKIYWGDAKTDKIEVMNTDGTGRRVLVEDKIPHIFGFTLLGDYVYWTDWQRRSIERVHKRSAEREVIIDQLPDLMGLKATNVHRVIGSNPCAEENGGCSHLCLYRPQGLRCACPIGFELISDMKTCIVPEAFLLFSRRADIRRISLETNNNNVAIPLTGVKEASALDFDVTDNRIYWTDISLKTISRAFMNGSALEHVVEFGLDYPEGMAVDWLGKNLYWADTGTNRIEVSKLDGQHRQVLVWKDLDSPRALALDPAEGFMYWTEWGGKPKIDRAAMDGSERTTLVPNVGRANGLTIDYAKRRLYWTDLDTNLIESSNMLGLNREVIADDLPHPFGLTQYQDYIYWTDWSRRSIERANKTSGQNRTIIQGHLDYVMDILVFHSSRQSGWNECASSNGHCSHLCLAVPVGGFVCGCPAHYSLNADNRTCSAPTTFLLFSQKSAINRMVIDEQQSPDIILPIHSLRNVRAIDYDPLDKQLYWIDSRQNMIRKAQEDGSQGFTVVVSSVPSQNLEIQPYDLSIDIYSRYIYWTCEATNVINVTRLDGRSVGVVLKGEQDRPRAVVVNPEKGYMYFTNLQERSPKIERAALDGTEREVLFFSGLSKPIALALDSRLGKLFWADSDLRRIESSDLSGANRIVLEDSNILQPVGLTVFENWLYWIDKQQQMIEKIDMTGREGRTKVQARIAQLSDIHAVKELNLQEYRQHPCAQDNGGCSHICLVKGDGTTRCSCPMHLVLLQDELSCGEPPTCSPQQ
Protocol: as §1, §2, §3

[3] = molecular target: T5, human LRP6 construct E3E4 (amino acids E631-Q1253) (human, UniProt O75581 631-1253, biotinylated for biolayer interferometry); experiment: BLI (Octet Red), biotinylated LRP6 on streptavidin tips, steady state
T5 construct: range 631-1253; also called LRP6 E3E4
T5 sequence (looked up): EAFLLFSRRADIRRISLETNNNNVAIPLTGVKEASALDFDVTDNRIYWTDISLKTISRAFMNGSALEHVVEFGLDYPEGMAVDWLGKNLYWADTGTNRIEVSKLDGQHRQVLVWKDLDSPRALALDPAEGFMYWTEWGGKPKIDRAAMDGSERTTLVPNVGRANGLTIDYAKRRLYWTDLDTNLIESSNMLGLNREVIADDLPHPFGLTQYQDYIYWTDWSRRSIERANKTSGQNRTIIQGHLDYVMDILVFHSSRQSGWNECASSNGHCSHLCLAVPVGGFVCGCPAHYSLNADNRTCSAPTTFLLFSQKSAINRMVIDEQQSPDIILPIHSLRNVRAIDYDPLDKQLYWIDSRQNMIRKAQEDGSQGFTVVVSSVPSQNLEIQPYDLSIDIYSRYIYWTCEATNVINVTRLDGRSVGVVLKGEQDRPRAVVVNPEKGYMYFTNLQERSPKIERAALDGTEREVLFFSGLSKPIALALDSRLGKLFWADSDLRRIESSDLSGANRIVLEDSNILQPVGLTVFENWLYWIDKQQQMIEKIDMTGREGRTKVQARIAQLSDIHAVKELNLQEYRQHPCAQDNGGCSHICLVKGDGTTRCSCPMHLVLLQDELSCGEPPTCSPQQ
Protocol: as §1, with “(R²)” for “(R^2)”

[4] = molecular target: T2, human LRP6 construct E1E2 (amino acids …); experiment: as above
Protocol: as §1, with “(R²)” for “(R^2)”

| Molecule | binding to LRP6 E3E4 (in words) (LRP6 E3E4) | binding result [1] | binding result [2] | binding to LRP6 E1E4 (in words) (LRP6 E1E4) | Kd [3] [nM] | Kd [4] [nM] |
| --- | --- | --- | --- | --- | --- | --- |
| Dkk1 H204E (ligand, human, UniProt O94907 32-266, looked up) TLNSVLNSNAIKNLPPPLGGAAGHPGSAVSAAPGILYPGGNKYQTIDNYQPYPCAEDEECGTDEYCASPTRGGDAGVQICLACRKRRKRCMRHAMCCPGNYCKNGICVSSDQNHFRGEIEETITESFGNDHSTLDGYSRRTTLSSKMYHTKGQEGSVCLRSSDCASGLCCAREFWSKICKPVLKEGQVCTKHRRKGSHGLEIFQRCYCGEGLSCRIQKDHHQASNSSRLHTCQRH | interfered with binding; also recorded: affect binding | binds | binds | retain binding | – | – |
| Dkk2 (ligand) KLNSIKSSLGGETPAQSANRSAGMNQGLAFGGSKKGKSLGQAYPCSSDKECEVGRYCHSPHQGSSACMLCRRKKKRCHRDGMCCPGTRCNNGICIPVTESILTPHIPALDGTRHRDRNHGHYSNHDLGWQNLGRPHSKMPHIKGHEGDPCLRSSDCIDGFCCARHFWTKICKPVLHQGEVCTKQRKKGSHGLEIFQRCDCAKGLSCKVWKDATYSSKARLHVCQKI | – | – | – | – | 38 | 53 |
